Values joined by “and” are separate entries in the source; they are usually repeats but may differ in a detail not shown here. Equal entries are not always repeated. Where two headings read alike, the source gives them in different places.
T1: human GREM1 (hGREM1-His; SEQ ID NO: 595) (human, UniProt O60565 25-184)
T1 construct: also called biotin-hGREM1-His; recombinant human GREM1 protein
T1 sequence: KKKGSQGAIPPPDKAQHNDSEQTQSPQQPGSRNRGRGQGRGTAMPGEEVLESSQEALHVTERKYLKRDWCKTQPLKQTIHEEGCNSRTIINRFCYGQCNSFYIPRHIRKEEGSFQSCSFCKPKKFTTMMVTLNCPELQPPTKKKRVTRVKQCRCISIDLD

B1: recombinant human GREM1 (hGREM1-His; C-terminal 10His tagged, R&D, #5190-GR) (ligand)
chain: KKKGSQGAIPPPDKAQHNDSEQTQSPQQPGSRNRGRGQGRGTAMPGEEVLESSQEALHVTERKYLKRDWCKTQPLKQTIHEEGCNSRTIINRFCYGQCNSFYIPRHIRKEEGSFQSCSFCKPKKFTTMMVTLNCPELQPPTKKKRVTRVKQCRCISIDLDHHHHHHHHHH
B2: H2bM2786N (antibody, mouse IgG2, V domains shown)
VH: EVHLLESGGGLVQPGGSLRLSCAASGFTFSSYVMNWVRQAPGKGLEWVSAISGSGGSTYYGDSVKGRSTISRDNSKNTLYLQMKSLRAEDTAVYYCAKGDIAPIVFDAFDIWGQGTMVTVSS
VL: DIQMTQSPSSLSASVGDRVTITCQASQDISNCLNWYQHKPGKAPKLLIYDASYLETGVPSRFSGSGSGTDFTFTISSLQPEDIATYYCQQYDNLPYTFGQGTKLEIK
notes: H2M prefix = mouse IgG2 Fc (here H2bM); also called H2M2786N
B3: H2bM2782N (antibody, mouse IgG2, V domains shown)
VH: EVQLVESGGGLVQPGGSLRLSCAASGFTFSSYSMNWVRQAPGKGLEWVSSISSSSNYINYADSIKGRFTISRDNAKNSLYLQMNSLRAEDTAVYYCARVNWDYPFDCWGRGTLVTVSS
VL: DIQMTQSPSSLSASVGDRVTITCRASQDIRHYLVWYQQKPGKVPKLLIYAASTLQSGVPSRFSGSGSGTDFILTISSLQPEDVATYYCQKYNSAPFTFGPGTKVDIK
notes: H2M prefix = mouse IgG2 Fc (here H2bM); also called H2M2782N
B4: H3M2788N (antibody, V domains shown)
VH: QVQLVESGGGVVQPGRSLRLSCAASGFTFSSHGMHWVRQAPGKGLEWVAVIWYDGSNKYHADSVKGRFTIYRDNSKNTLDLQMNSLRVEDTAMYYCAREDSNNEDLDYWGQGTLVTVSS
VL: DIQMTQSPSSLSASVGDRVTITCRASQGIRNDLGWFQQKPGKAPKRLIYVASNLQSGVPSRFSGSGSGTEFTLTISSLQPEDFATYYCLQHSNYPPWTFGQGTKVEIK
notes: H3M prefix marks the Fc (chimeric, mouse constant domains)

Key:
[1] = target: recombinant human BMP4 (hBMP4; R&D, #314-BP/CF) (human); assay: cell-based or functional assay
Sequence of recombinant human BMP4 (hBMP4; R&D, #314-BP/CF) (human) (P12644 293-408): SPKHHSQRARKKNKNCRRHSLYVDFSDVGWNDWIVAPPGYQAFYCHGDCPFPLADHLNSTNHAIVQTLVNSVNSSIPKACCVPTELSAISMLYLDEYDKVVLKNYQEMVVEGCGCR

[2] = target: recombinant human BMP4 (hBMP4; R&D, #314-BP/CF) (human); assay: cell-based or functional assay; remark: listed apart in the source
[3] = target: recombinant human BMP4 (hBMP4; R&D, #314-BP/CF) (human); assay: cell-based or functional assay; remark: listed apart in the source
[4] = target: T1, human GREM1 (hGREM1-His; SEQ ID NO: 595); assay: SPR, Biacore T200, 25 C, mAb captured, hGREM1-His injected;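 further: Heparin-supplemented HBS-EP+ used as running buffer, association and dissociation phases followed, Kd computed as koff divided by kon and half-life derived from koff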
[5] = target: B1; assay: cell-based or functional assay

For B1, the “hGrem1-His IC50 (nM), inhibition of 100 pM hBMP4, W-20-17/BRE-luc luciferase” value [1] was 2.9 nM, the “hGREM1-His, IC50 (M); W-20-17 cell differentiation assay (alkaline phosphatase)” value [2] was 4.4e-09 M and the “hGrem1-His IC50 (nM), inhibition of 100 pM hBMP4, W-20-17/BRE-luc luciferase” value [3] was 6 nM and 4.3 nM and 4.2 nM and 5.4 nM. The “hGrem1-His IC50 (nM), inhibition of 200 pM hBMP4, W-20-17/BRE-luc luciferase” value [3] was 10.3 nM.

Work on B2 yielded a Kd [4] of 33 nM, a koff [4] of 0.006 s⁻¹ and a kon [4] of 180000 M⁻¹ s⁻¹. For the same binder, the t1/2 [4] was 1.9 min and the “IC50 [M], inhibition of hGREM1-His, W-20-17/BRE-luc luciferase (200 pM hBMP4, 20 nM hGREM1-His)” value (“IC50 [M], inhibition of hGREM1-His” for short) [5] was 1.9e-08 M.

With B3 the Kd [4] was 15.3 nM, the koff [4] was 0.00189 s⁻¹ and the kon [4] was 123000 M⁻¹ s⁻¹. The t1/2 [4] was 6.1 min and the “IC50 [M], inhibition of hGREM1-His” value [5] was 3.5e-09 M.

B4 gave a Kd [4] of 4.2 nM, a koff [4] of 0.00035 s⁻¹ and a kon [4] of 80000 M⁻¹ s⁻¹. The t1/2 [4] was 33 min and the “IC50 [M], inhibition of hGREM1-His” value [5] was 2.5e-08 M.

— patent publication US20200157194A1 (Regeneron, published 2020)
